The experiment addresses full length human importin β (KPNB1), expressed from pET30a-WT Importin β (pKW485) (human, UniProt Q14974 1-876). Briefly: FRET; displacement of importin β-bound Rango sensor.

Chain of full length human importin β (KPNB1), expressed from pET30a-WT Importin β (pKW485) (Q14974 whole entry): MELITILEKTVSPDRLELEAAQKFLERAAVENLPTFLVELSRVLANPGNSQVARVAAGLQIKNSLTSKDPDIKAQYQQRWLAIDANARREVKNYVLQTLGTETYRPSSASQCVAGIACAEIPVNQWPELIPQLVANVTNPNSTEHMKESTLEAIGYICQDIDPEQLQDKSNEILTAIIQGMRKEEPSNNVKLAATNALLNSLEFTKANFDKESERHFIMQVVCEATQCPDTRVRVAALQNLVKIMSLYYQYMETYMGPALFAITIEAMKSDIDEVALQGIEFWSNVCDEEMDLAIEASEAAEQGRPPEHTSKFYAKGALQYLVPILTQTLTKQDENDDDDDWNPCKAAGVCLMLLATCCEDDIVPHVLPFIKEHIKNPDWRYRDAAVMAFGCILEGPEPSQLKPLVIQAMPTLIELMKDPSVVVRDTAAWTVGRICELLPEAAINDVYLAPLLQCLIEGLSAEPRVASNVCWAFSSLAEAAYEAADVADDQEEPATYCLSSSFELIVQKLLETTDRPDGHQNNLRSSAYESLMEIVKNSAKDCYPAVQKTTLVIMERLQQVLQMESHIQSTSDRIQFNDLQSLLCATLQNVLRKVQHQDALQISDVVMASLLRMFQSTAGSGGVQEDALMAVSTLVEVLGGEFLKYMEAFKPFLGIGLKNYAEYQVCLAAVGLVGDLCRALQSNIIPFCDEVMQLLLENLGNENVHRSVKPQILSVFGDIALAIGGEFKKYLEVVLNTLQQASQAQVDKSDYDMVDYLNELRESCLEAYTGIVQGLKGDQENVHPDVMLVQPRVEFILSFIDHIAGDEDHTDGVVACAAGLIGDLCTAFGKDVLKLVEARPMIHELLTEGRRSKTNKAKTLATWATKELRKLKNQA

Turning to PRPRPRPRPRPRPRPRPRPRKC, the Kd was 0.0082 µM.

In turn, GRGRGRGRGRGRGRGRGRGRKC registered a Kd of 0.0174 µM. Compared with the last molecule, the Kd is about 2.1-fold higher.

These data come from doi:10.1101/787473 (2019).
